# Laboratory results reported in patent US20260258125A1.
# How the values were obtained:
# [1] = target: membrane-bound endogenous human CEACAM5 and CEACAM6 on BxPC3 cells; assay: flow cytometry on BxPC3 cells with against without 100 nM soluble CEACAM6
# [2] = target: membrane-bound endogenous human CEACAM5 and CEACAM6 on LS 174T cells; assay: flow cytometry on LS174T cells with against without 100 nM soluble CEACAM6
# [3] = target: membrane-bound endogenous human CEACAM5 and CEACAM6 on A549 cells; assay: flow cytometry on A549 cells (printed over the panel: CEACAM5-, CEACAM6+), MFI
binder,measurement,setting,value
"PR303563 (Tinurilimab) (antibody, human IgG2, kappa, V domains shown) VH: QVTLRESGPALVKPTQTLTLTCTFSGFSLSTYGIGVGWIRQPPGKALEWLAHIWWNDNKYYSTSLKTRLTISKDTSKNQVVLTMTNMDPVDTATYYCARISLPYFDYWGQGTTLTVSS VL: DIQLTQSPSFLSASVGDRVTITCKASQNVGTAVAWYQQKPGKAPKLLIYSASNRYTGVPSRFSGSGSGTEFTLTISSLQPEDFATYYCQQYSSYPLTFGGGTKVEIKR",fold change of EC50 at the presence of 100 nM soluble protein,[1],4.1 fold
same,fold change of EC50 at the presence of 100 nM soluble protein,[2],6.9 fold
same,EC50 (read off the curve),[3],0.1 nM
